In the supplement of paper PMC12042874:
± gives the uncertainty stated by the source.

assay: amyloid nucleation score (Sup35N fusion, yeast selection) (log enrichment); library NNK3; higher = more nucleation; inactive = no reads after selection
Summary of the method: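 In psi-negative yeast, Sup35N fusions carrying peptides of 20 random codons were induced with 100 μM copper sulfate for 24 hours. The cells then grew 7 days at 30°C on medium lacking adenine and uracil, and plasmid inserts from input and output were Illumina-sequenced, excluding sequences with under 100 input reads. Nucleation score is the DiMSum log enrichment of output over input reads, centred on the mode score of non-aggregating sequences.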

Substance	amyloid nucleation score
VSFQD	inactive
VSFSSCTWSMQEERMLVSWG	inactive
VSFYSSCVWIDARSCDYCYF	2.79 ± 0.058
VSGMDCSGGFASVESMASYR	inactive
VSLFGCKIMLRMKFGVCLSG	inactive
VSLKVFYGNKDARNRDIPTL	inactive
VSLLNITTVMSSPRIQGKHV	1.01 ± 0.12
VSLLSVCGCDRRVFEVWHYG	0.446 ± 0.2
VSLMMCVVPFMPVLQHMSNA	0.793 ± 0.16
VSMRPMTSSRLKRFKYRYLY	inactive
VSNMCVGMKLCFSDNHYREL	1.78 ± 0.067
VSTGSAGSLWSV	inactive
VSVFMKLVRFET	1.17 ± 0.091
VSVNMFLYISVNYKELGCEY	1.93 ± 0.056
VSVYRRLGHIVLVIVITLAS	inactive
VTCCLLFLDCGVGSRMMLGL	-0.356 ± 0.98
VTCETSGADVVSTR	inactive
VTDEIFELSGKVTIDSAEL	inactive
VTFLHGCIDFAGSYSAGSSD	inactive
VTGDWTGYMPLCLISVAFLS	1.5 ± 0.083
VTLFAMPRNL	inactive
VTNPLGPFMDRF	inactive
VTNSFSIFSGIIVHSTSLMV	0.032 ± 0.6

Substance	amyloid nucleation score
VTQATWLGRIYLLLAPA	inactive
VTQESNHATIAVLM	inactive
VTQLWVLNSVSVYWKDLVAP	-0.319 ± 1.1
VTWNHSSCSERKRVRMSGWS	0.801 ± 0.14
VVDGLMAVFLSHVRVAIYYV	inactive
VVDLIFLSLF	inactive
VVLRTSLCVMWINVRHLCDP	inactive
VVLWWS	inactive
VVMIPNIFCDWRGNGNNQCG	1.33 ± 0.11
VVRIDSSLGKFNFQSAKD	inactive
VVRSRTFTSTSYTF	0.777 ± 0.23
VVSSFMMLVYMNLLNFSNVE	inactive
VVSSRLDAALDCWVREDCGV	inactive
VVYYFKMLMGVTLYSMVIWQ	inactive
VVYYWSVRITAVQHYWHLYT	inactive
VWAYFDMFDTFCYKVTARMK	inactive
VWCRQITMMACMSVR	inactive
VWCTSVVT	-0.149 ± 0.28
VWCYFVQYHGIISLSFIAFR	inactive
VWETATNFSISMLWRQAFRM	inactive
VWKLRLDVLIITIWGFNFYL	inactive
VWRRKKAGAHYREDVSNYPQ	inactive
VWVHA	inactive

Substance	amyloid nucleation score
VWVLHRRRSKYMQVTVWLDL	inactive
VWVLYGKITVPSPKARMGKT	-0.083 ± 1.1
VYACWIMSNVPSRAVEILYS	inactive
VYFGSWTWSVNSKHLPPALV	inactive
VYILFNWSRPSCHLIEHFRA	inactive
VYKWRAYIEHSNFWAIKPVC	inactive
VYLDFKGWFVMLSINLNQFY	inactive
VYLIKPMNDALSHHEPIKWD	inactive
VYNCAMVCPNLIFWSFATGL	2.55 ± 0.069
VYNLIRLFLYPTVISSITPL	inactive
VYNRRYKSNRNIYSHGNRLK	1.54 ± 0.1
VYNVTITNYRNLPAM	2.24 ± 0.088
VYQLIYVTGCQNAVRE	0.674 ± 0.32
VYRYFASKIIKGIFSRCCTF	inactive
VYSGSFGDSKLLMFWCSITV	inactive
VYVRVFGLLPDDTTSSF	inactive
WAAWFYASGVRASEGRDYGG	inactive
WAEFLCLSSSFFLDM	inactive
WAHLGLDNMYKVLCSRGANA	inactive
WANMTFTELSYIK	inactive
WAYLWLSKNSYGR	inactive
WCCHRAFLYI	inactive
WCFYFEQDMFHAPY	-0.106 ± 0.82

Substance	amyloid nucleation score
WCFYKSLIACGHIVGIEPDW	0.848 ± 0.15
WCFYKSRLFVVQVVVLYNRF	inactive
WCRCSFVVLHSVVVCSFGTR	-0.074 ± 0.69
WDDEFVWSGINN	inactive
WDFGPEVLSE	inactive
WDLITL	inactive
WDNITRNWRSCPHQMSLRYL	-0.148 ± 1
WDPECSTDVISEGRGRYTEW	inactive
WDPGFFWIMAVARFTIACQY	inactive
WDYILGFGHVSQRARMESFD	inactive
WFDSAPSPLDLRVHLFNVKV	inactive
WFFETQLSLWWVNGQDLAEV	inactive
WFFFDIAWRSPTIRRWTSSM	inactive
WFTVHLIVCSVRRLDSFVLP	inactive
WFVRIIQLIT	inactive
WFVYALMNRLEYSKAYFPML	inactive
WGCYSWTMVRS	1.33 ± 0.16
WGLWSVSVCWMRLFPGY	inactive
WGMSRLFVYFPVILLMISLT	inactive
WGNISGSA	inactive
WGSMMSWQVKFVSILNPLPR	inactive
WHTLLDCGVGEFWS	inactive
WHVEIIVHNMSFSILKNVGR	1.65 ± 0.1

Substance	amyloid nucleation score
WIFENMSYIRKICQWCKSYV	inactive
WILYSMMQLSMMFKSMYSVT	inactive
WIMISKSSMPMTPDAVQAMG	inactive
WINTRLGCPDTNRGSTRVTL	inactive
WIRDFYEFAEWSSDTCGIRI	inactive
WISIVQW	inactive
WIVVDKSNQCGLGYVLWYNF	inactive
WIWSGMYSNWPNSAPVNIR	inactive
WKCVLMTSATHMPQYPHGCG	inactive
WKFAGHEALWFLKIIEMLR	inactive
WKGWSFNLLLRGILQAIIAS	inactive
WKPCS	inactive
WKPGRYSTKAPQLEVPERHV	inactive
WKRNI	0.172 ± 0.71
WKYGKLISPFVQDVVSLSIK	inactive
WLHFCHSAPSEYFVIMRMCK	inactive
WLNEM	inactive
WLSNREVFKMYIRLVQLAWL	inactive
WMCVLCCSVRNIGKTYKSCL	inactive
WMFSRL	inactive
WMMNIDYTNSW	inactive
WNFYGWRVLSHRRTGSVHRL	-0.847 ± 1.4
WNLSSFININPSYYSDTWHG	2.08 ± 0.071

Substance	amyloid nucleation score
WNLVPSHMFFV	inactive
WNYGTALMLRQIGSGFICIY	inactive
WPTFDCRRM	inactive
WQITTRTIDRPHYKHPGVPL	inactive
WQIWDRVQTRKFHGEFTYMR	inactive
WQPFD	inactive
WRAADDQTWGLVRCLSI	0.57 ± 0.17
WRCLYYMQAYSSN	inactive
WRFRIVR	inactive
WRFYGYI	inactive
WRSCSKDHLCFQSPVMPLSR	0.214 ± 0.42
WRYYRAYKVITHIKFLFFTE	inactive
WSAIVDSWCDSSRRVEIVVR	inactive
WSFNGSNECISRLDINLNVF	0.407 ± 0.15
WSFVPRGIVVSRRLSVYTRT	inactive
WSLSYHRKMIFGDTCVTYIG	inactive
WSMSDFAALIGWIDALGLEL	inactive
WSNNMWYVRYSDFCISCLLV	inactive
WSRSSADRVII	-0.471 ± 1.5
WSTESWTYPGIRMCFWGGEG	-0.755 ± 1.4
WTGMPRTGWDGPRYKALSRS	inactive
WTNSSQHLSESLWYVDYCQG	inactive
WTRHGSEFVCYNSGHLWVFD	0.164 ± 0.31

Substance	amyloid nucleation score
WTSQVMRMDKTQVTGRDRVA	inactive
WTSSVILRPSMCLLGWYMLV	inactive
WTTYLWVAGVLA	inactive
WTWGKAYDAMFLIVTFFCIF	inactive
WTYIWCAN	1.75 ± 0.11
WVFLNRAQQHSNVLPSQGLV	inactive
WVFSSNVRKYMRALRRRYSD	inactive
WVGNTVKHKLGLVGNCGSCA	-0.73 ± 1.9
WVIRELTWITWIVLADLS	inactive
WVPKFYRLGSDTWSSVSLDV	inactive
WVRAA	inactive
WVRCVRQGVYLRYVLLLCEI	inactive
WVWIVSMVRRGSEAFEALEM	inactive
WWCMNRCEDAASINGIVARK	inactive
WWFLGGRSRGDRGILMVDVA	0.214 ± 0.53
WWGNRAVVYIILLHEPGAWR	inactive
WWTNLATPAKNQS	inactive
WYKNYASTRIPMIEWKRILT	inactive
WYLMCWCCLKVPVAQLM	0.671 ± 0.19
